# ± gives the standard deviation of the averaged measurements.
# Experiment: total protein half-life in vivo (active degradation + dilution); higher = more stable protein
# [1] = E. coli NCM3722 delta-clpP delta-lon delta-hslV, growth: N-lim chemostat, doubling time 6 h
# [2] = E. coli NCM3722 delta-clpP, growth: N-lim chemostat, doubling time 6 h
# [3] = E. coli NCM3722 delta-hslV, growth: N-lim chemostat, doubling time 6 h
# [4] = E. coli NCM3722 delta-lon, growth: N-lim chemostat, doubling time 6 h
# [5] = E. coli NCM3722 delta-smpB, growth: N-lim chemostat, doubling time 6 h
# [6] = wild type E. coli NCM3722, growth: C-lim chemostat, doubling time 3 h
# [7] = wild type E. coli NCM3722, growth: C-lim chemostat, doubling time 6 h
# [8] = wild type E. coli NCM3722, growth: N-lim chemostat, doubling time 6 h
# [9] = wild type E. coli NCM3722, growth: N-lim chemostat, doubling time 12 h
# [10] = wild type E. coli NCM3722, growth: P-lim chemostat, doubling time 6 h
# [11] = wild type E. coli NCM3722, growth: P-lim chemostat, doubling time 12 h
# [12] = wild type E. coli NCM3722, growth: C-lim chemostat, doubling time 12 h
Sequence,total protein half-life in vivo [1] [h],total protein half-life in vivo [2] [h],total protein half-life in vivo [3] [h],total protein half-life in vivo [4] [h],total protein half-life in vivo [5] [h],total protein half-life in vivo [6] [h],total protein half-life in vivo [7] [h],total protein half-life in vivo [8] [h],total protein half-life in vivo [9] [h],total protein half-life in vivo [10] [h],total protein half-life in vivo [11] [h],total protein half-life in vivo [12] [h]
MHHATPLITTIVGGLVLAFILGMLANKLRISPLVGYLLAGVLAGPFTPGFVADTKLAPELAELGVILLMFGVGLHFSLKDLMAVKAIAIPGAIAQIAVATLLGMALSAVLGWSLMTGIVFGLCLSTASTVVLLRALEERQLIDSQRGQIAIGWLIVEDLVMVLTLVLLPAVAGMMEQGDVGFATLAVDMGITIGKVIAFIAIMMLVGRRLVPWIMARSAATGSRELFTLSVLALALGVAFGAVELFDVSFALGAFFAGMVLNESELSHRAAHDTLPLRDAFAVLFFVSVGMLFDPLILIQQPLAVLATLAIILFGKSLAAFFLVRLFGHSQRTALTIAASLAQIGEFAFILAGLGMALNLLPQAGQNLVLAGAILSIMLNPVLFALLEKYLAKTETLEEQTLEEAIEEEKQIPVDICNHALLVGYGRVGSLLGEKLLASDIPLVVIETSRTRVDELRERGVRAVLGNAANEEIMQLAHLECAKWLILTIPNGYEAGEIVASARAKNPDIEIIARAHYDDEVAYITERGANQVVMGEREIARTMLELLETPPAGEVVTG,7.0037 ± 0.0035,6.7 ± 0.41,6.3 ± 0.52,6.24 ± 1.1,6.31 ± 0.61,> 4,5.87 ± 0.64,5.84 ± 0.9,12.7 ± 0.69,6.44 ± 0.68,12.6 ± 0.86,
MLYIFRLIITVIYSILVCVFGSIYCLFSPRNPKHVATFGHMFGRLAPLFGLKVECRKPTDAESYGNAIYIANHQNNYDMVTASNIVQPPTVTVGKKSLLWIPFFGQLYWLTGNLLIDRNNRTKAHGTIAEVVNHFKKRRISIWMFPEGTRSRGRGLLPFKTGAFHAAIAAGVPIIPVCVSTTSNKINLNRLHNGLVIVEMLPPIDVSQYGKDQVRELAAHCRSIMEQKIAELDKEVAEREAAGKV,5.89,6.07 ± 0.43,,,4.95,,6.42,5.93 ± 0.29,12.2 ± 1.3,6.42 ± 1.2,11.8 ± 0.39,
MNPERSERIEIPVLPLRDVVVYPHMVIPLFVGREKSIRCLEAAMDHDKKIMLVAQKEASTDEPGVNDLFTVGTVASILQMLKLPDGTVKVLVEGLQRARISALSDNGEHFSAKAEYLESPTIDEREQEVLVRTAISQFEGYIKLNKKIPPEVLTSLNSIDDPARLADTIAAHMPLKLADKQSVLEMSDVNERLEYLMAMMESEIDLLQVEKRIRNRVKKQMEKSQREYYLNEQMKAIQKELGEMDDAPDENEALKRKIDAAKMPKEAKEKAEAELQKLKMMSPMSAEATVVRGYIDWMVQVPWNARSKVKKDLRQAQEILDTDHYGLERVKDRILEYLAVQSRVNKIKGPILCLVGPPGVGKTSLGQSIAKATGRKYVRMALGGVRDEAEIRGHRRTYIGSMPGKLIQKMAKVGVKNPLFLLDEIDKMSSDMRGDPASALLEVLDPEQNVAFSDHYLEVDYDLSDVMFVATSNSMNIPAPLLDRMEVIRLSGYTEDEKLNIAKRHLLPKQIERNALKKGELTVDDSAIIGIIRYYTREAGVRGLEREISKLCRKAVKQLLLDKSLKHIEINGDNLHDYLGVQRFDYGRADNENRVGQVTGLAWTEVGGDLLTIETACVPGKGKLTYTGSLGEVMQESIQAALTVVRARAEKLGINPDFYEKRDIHVHVPEGATPKDGPSAGIAMCTALVSCLTGNPVRADVAMTGEITLRGQVLPIGGLKEKLLAAHRGGIKTVLIPFENKRDLEEIPDNVIADLDIHPVKRIEEVLTLALQNEPSGMQVVTAK [P0A9M0],3.09,6.54 ± 0.34,4.728 ± 0.026,,4.49 ± 0.13,2.889 ± 0.0043,5.944 ± 0.036,4.74 ± 0.17,6.68 ± 0.68,5.58 ± 0.2,10.7 ± 0.49,11.2 ± 0.36
MQATATTLDHEQEYTPINSRNKVLVASLIGTAIEFFDFYIYATAAVIVFPHIFFPQGDPTAATLQSLATFAIAFVARPIGSAVFGHFGDRVGRKATLVASLLTMGISTVVIGLLPGYATIGIFAPLLLALARFGQGLGLGGEWGGAALLATENAPPRKRALYGSFPQLGAPIGFFFANGTFLLLSWLLTDEQFMSWGWRVPFIFSAVLVIIGLYVRVSLHESPVFEKVAKAKKQVKIPLGTLLTKHVRVTVLGTFIMLATYTLFYIMTVYSMTFSTAAAPVGLGLPRNEVLWMLMMAVIGFGVMVPVAGLLADAFGRRKSMVIITTLIILFALFAFNPLLGSGNPILVFAFLLLGLSLMGLTFGPMGALLPELFPTEVRYTGASFSYNVASILGASVAPYIAAWLQTNYGLGAVGLYLAAMAGLTLIALLLTHETRHQSL,,,,,,,,,,2.33 ± 0.58,2.89 ± 1.6,2.58 ± 0.1
MTLLASLRDWLKAQQLDAVLLSSRQNKQPHLGISTGSGYVVISRESAHILVDSRYYVEVEARAQGYQLHLLDATNTLTTIVNQIIADEQLQTLGFEGQQVSWETAHRWQSELNAKLVSATPDVLRQIKTPEEVEKIRLACGIADRGAEHIRRFIQAGMSEREIAAELEWFMRQQGAEKASFDTIVASGWRGALPHGKASDKIVAAGEFVTLDFGALYQGYCSDMTRTLLVNGEGVSAESHLLFNVYQIVLQAQLAAISAIRPGVRCQQVDDAARRVITEAGYGDYFGHNTGHAIGIEVHEDPRFSPRDTTTLQPGMLLTVEPGIYLPGQGGVRIEDVVLVTPQGAEVLYAMPKTVLLTGEA,6.04,,,,,,,,,,,3.72
MAQFYSAKRRTTTRQIITVSVNDLDSFGQGVARHNGKTLFIPGLLPQENAEVTVTEDKKQYARAKVVRRLSDSPERETPRCPHFGVCGGCQQQHASVDLQQRSKSAALARLMKHDVSEVIADVPWGYRRRARLSLNYLPKTQQLQMGFRKAGSSDIVDVKQCPILAPQLEALLPKVRACLGSLQAMRHLGHVELVQATSGTLMILRHTAPLSSADREKLERFSHSEGLDLYLAPDSEILETVSGEMPWYDSNGLRLTFSPRDFIQVNAGVNQKMVARALEWLDVQPEDRVLDLFCGMGNFTLPLATQAASVVGVEGVPALVEKGQQNARLNGLQNVTFYHENLEEDVTKQPWAKNGFDKVLLDPARAGAAGVMQQIIKLEPIRIVYVSCNPATLARDSEALLKAGYTIARLAMLDMFPHTGHLESMVLFSRVK,5.4 ± 0.1,5.11 ± 0.95,4.34 ± 0.43,4.54 ± 0.058,3.9767 ± 0.00076,2.96 ± 0.12,5.12 ± 0.17,4.203 ± 0.032,6.93 ± 0.14,4.49 ± 1,10.7 ± 2.4,9.07 ± 0.16
MESLASLYKNHIATLQERTRDALARFKLDALLIHSGELFNVFLDDHPYPFKVNPQFKAWVPVTQVPNCWLLVDGVNKPKLWFYLPVDYWHNVEPLPTSFWTEDVEVIALPKADGIGSLLPAARGNIGYIGPVPERALQLGIEASNINPKGVIDYLHYYRSFKTEYELACMREAQKMAVNGHRAAEEAFRSGMSEFDINIAYLTATGHRDTDVPYSNIVALNEHAAVLHYTKLDHQAPEEMRSFLLDAGAEYNGYAADLTRTWSAKSDNDYAQLVKDVNDEQLALIATMKAGVSYVDYHIQFHQRIAKLLRKHQIITDMSEEAMVENDLTGPFMPHGIGHPLGLQVHDVAGFMQDDSGTHLAAPAKYPYLRCTRILQPGMVLTIEPGIYFIESLLAPWREGQFSKHFNWQKIEALKPFGGIRIEDNVVIHENNVENMTRDLKLA,5.4 ± 0.69,4.93 ± 0.32,5.12 ± 0.4,5.92 ± 0.92,4.33 ± 0.059,3.21 ± 0.37,5.72 ± 0.084,4.77 ± 0.23,8.64 ± 0.18,6.13 ± 0.18,11.9 ± 0.27,10.2 ± 1.3

# Source: the supplement of paper PMC11246515
